In US20070004909A1 (MacroGenics, published 2007):

How the values were obtained:
soluble CD16A (sCD16A) [1] = molecular target: T1, soluble CD16A (sCD16A) (UniProt P08637 17-208, limits assumed); assay: sandwich ELISA: mCD32B coated on the plate, diabody preparation diluted 1:25 and 1:50, biotin-conjugated sCD16A as the probe; OD450
T1 construct: extracellular domain; Amine-coupled to the chip in SPR; biotin- or HRP-conjugated as the probe in the sandwich ELISAs; also called FcγRIIIA; sCD16A-Biotin
T1 sequence (P08637 17-208 limits assumed): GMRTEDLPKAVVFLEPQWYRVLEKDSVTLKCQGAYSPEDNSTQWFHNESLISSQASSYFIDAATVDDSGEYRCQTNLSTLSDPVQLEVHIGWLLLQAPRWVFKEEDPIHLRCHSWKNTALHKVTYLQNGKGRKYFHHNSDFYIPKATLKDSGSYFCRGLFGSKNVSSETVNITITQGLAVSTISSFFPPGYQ
Description: (§1) The binding of diabody molecules derived from the polyprotein precursor molecule construct 13 (SEQ ID NO:97) to murine CD32B (mCD32B) and soluble CD16A (sCD16A) was assayed in a sandwich ELISA. mCD32B was used as the target protein. The secondary probe was biotin conjugated sCD16A.
(§2) ELISA: The binding of diabody molecules secreted into the medium was assayed by sandwich ELISA as described, supra. Murine CD32B was used to coat the plate, i.e., as the target protein, and HRP-conjugated CD16A was used as the probe for the product of the co-transfection of constructs 15 and 16. mCD32B was used as the target protein and biotin-conjugated CD16A was used as the probe for the recombinant system comprising construct 13.
(§3) Conditioned media from the recombinant expression systems comprising constructs 13 was analysed by sandwich ELISA. The ELISA assay tested the binding of the CBD for specificity to either or both of mCD32B and/or CD16 (FIG. 18). CD32B served as the target antigen and CD16A was used as the secondary probe.

murine CD32B (mCD32B) = molecular target: T2, murine CD32B (mCD32B) (murine, UniProt P08101 30-210, limits assumed); assay: as above
T2 construct: Coating protein of the sandwich ELISA for the construct 13 product
T2 sequence (looked up): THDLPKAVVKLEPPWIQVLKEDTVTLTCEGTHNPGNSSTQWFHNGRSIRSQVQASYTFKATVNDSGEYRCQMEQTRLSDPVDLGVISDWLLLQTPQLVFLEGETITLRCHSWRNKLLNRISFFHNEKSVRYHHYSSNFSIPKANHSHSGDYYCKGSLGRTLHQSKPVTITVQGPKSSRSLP
Description: as §1, §2, §3

soluble CD16A (sCD16A) [2] = molecular target: T1, soluble CD16A (sCD16A); assay: sandwich ELISA: sCD32B coated on the plate (figure legend), purified diabody diluted 1:25 to 1:100, HRP-conjugated sCD16A as the probe; OD450
soluble CD32B (sCD32B) [3] = molecular target: T3, soluble CD32B (sCD32B) (UniProt P31994 43-217, limits assumed); assay: SPR (BIAcore), sCD32B immobilised, diabody injected for 60 s
T3 construct: extracellular domain; As immobilised on the BIAcore chip; also called FcγRIIB
T3 sequence (looked up): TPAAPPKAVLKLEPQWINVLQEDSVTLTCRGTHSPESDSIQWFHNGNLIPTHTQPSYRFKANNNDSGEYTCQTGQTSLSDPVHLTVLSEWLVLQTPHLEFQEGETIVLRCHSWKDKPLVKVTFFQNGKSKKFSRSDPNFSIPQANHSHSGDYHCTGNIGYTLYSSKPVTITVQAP
Description: (§4) The binding of h2B6-h3G8 CBD, h2B6 CMD and h3G8 CMD to sCD16A, sCD32B, and sCD32A (negative control) was assayed by SPR analysis. h3G8 scFv was also tested as a control. (A) Binding to sCD16; (B) Binding to sCD32B and (C) Binding to sCD32A. Diabodies were injected at a concentration of 100 NM, and scFv at a concentration of 200 nM, over receptor surfaces at a flow rate of […] for 60 sec.

soluble CD32A (sCD32A) = molecular target: T4, soluble CD32A (sCD32A) (UniProt P12318 34-217, limits assumed); assay: SPR (BIAcore), sCD32A (negative control receptor) immobilised, diabody injected for 60 s
T4 construct: extracellular domain; Negative control surface in SPR; also called control receptor
T4 sequence (looked up): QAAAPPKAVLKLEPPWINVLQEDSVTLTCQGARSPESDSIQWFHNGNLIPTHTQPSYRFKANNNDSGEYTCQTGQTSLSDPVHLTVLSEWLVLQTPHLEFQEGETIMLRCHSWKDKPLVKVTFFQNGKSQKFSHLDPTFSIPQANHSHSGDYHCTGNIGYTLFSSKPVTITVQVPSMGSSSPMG
Description: as §4

sCD32B-Ig = molecular target: T5, sCD32B-Ig (UniProt P31994 43-217); assay: sandwich ELISA: sCD32B-Ig coated on the plate, diabody titrated, detected with labelled sCD16A; OD450
T5 construct: extracellular domain; also called CD32B (ELISA coat); sCD32B (target protein of the sandwich ELISAs); not shown: Ig part of sCD32B-Ig is not described
T5 sequence (looked up): T3 sequence (looked up)
Description: The binding of h2B6-h3G8 CBD to sCD32B and sCD16A was assayed in a sandwich ELISA. sCD32B was used as the target protein. The secondary probe was HRP conjugated sCD16A. h3G8 CMD, which binds CD16A, was used as control.
ELISA: The binding of eluted and purified diabodies was characterized by ELISA assay, as described in 5.4.2. 50 ul/well of a 2 ug/ml solution of sCD32B-Ig was coated on 96-well Maxisorp plate in Carbonate buffer at 4° C. over night. The plate was washed three times with PBS-T (PBS, 0.1% Tween 20) and blocked by 0.5% BSA in PBS-T for 30 minutes at room temperature. Subsequently, h2B6-h3G8 CBD, h2B6 CMD, or h3G8 CMD were diluted into the blocking buffer in a serial of two-fold dilutions to generate a range of diabody concentrations, from 0.5 μg/ml to 0.001 μg/ml. The plate was then incubated at room temperature for 1 hour. After washing with PBS-T three times, 50 ul/well of 0.2 ug/ml sCD16A-Biotin was added to each well. The plate was again incubated at room temperature for 1 hour. After washing with PBS-T three times, 50 ul/well of a 1:5000 dilution of HRP conjugated streptavidin (Amersham Pharmacia Biotech) was used for detection. The HRP-streptavidin was allowed to incubate for 45 minutes at room temperature. […] The OD450 nm was read by using a 96-well plate reader and SOFTmax software, and results plotted using GraphPadPrism 3.03 software. […]

soluble CD16A (sCD16A) [4] = molecular target: T1, soluble CD16A (sCD16A); assay: SPR (BIAcore 1000); receptor amine-coupled (~1000 RU), analyte 6.25-200 nM; units not printed (koff/kon implies nM)
Description: (§5) The binding of h2B6-h3G8 CBD, h2B6 CMD and h3G8 CMD to sCD16A, and sCD32B was assayed by SPR analysis. h3G8 scFv was also tested as a control. (A) Binding of to h3G8 CMD sCD16A; (B) Binding of h2B6-h3G8 CBD to sCD16A; (C) Binding of h3G8 scFv to sCD16A; (D) Binding of h2B6 CMD to sCD32B; and (E) Binding of h2B6-h3G8 CBD to sCD32B. Diabodies were injected at concentrations of 6.25-200 nM over receptor surfaces at a flow rate of […] for 180 sec.
(§6) SPR analysis was also used to estimate the kinetic and equilibrium constants of the CMDs and h2B6-h3G8 CBD to sCD16 and/or sCD32B. Results were compared to the same constants calculated for an h3G8 scFV. FIGS. 7A-E show the graphical results of the SPR analysis. The kinetic on and off rates, as well as the equilibrium constant, calculated from the results depicted in FIG. 7 are provided in Table 13.

soluble CD16A (sCD16A) [5] = molecular target: T1, soluble CD16A (sCD16A); assay: SPR (BIAcore), sCD16 immobilised, diabody injected for 60 s
Description: as §4

soluble CD32B (sCD32B) [6] = molecular target: T3, soluble CD32B (sCD32B); assay: SPR (BIAcore 1000); receptor amine-coupled (~1000 RU), analyte 6.25-200 nM; units not printed (koff/kon implies nM)
Description: as §5, §6

B1: h2.4G2-h3G8 CBD produced from the polyprotein precursor construct 13 (bispecific antibody)
chain 1: DTVLTQSPASLAVSLGQRATISCKASQSVDFDGDSFMNWYQQKPGQPPKLLIYTTSNLESGIPARFSASGSGTDFTLNIHPVEEEDTATYYCQQSNEDPYTFGGGTKLEIKGGGSGGGGEVELVESGGGLVQPGRSLKLSCAASGFTFSDYYMAWVRQAPTTGLEWVASISYDGGDTHYRDSVKGRFTISRDNAKSSLYLQMDSLRSEDTATYYCATETTGIPTGVMDAWGQGVSVTVSSLGGCGGRAKR
chain 2: DVQMTQSPSNLAASPGESVSINCKASESISKYLAWYLQKPGKANKLLMYDGSTLQSGIPSRFSGSGSGTDFTLTIRSLEPEDFGLYYCQQHYEYPATFGSGTKLEIKGGGSGGGGQVTLKESGPGILQPSQTLSLTCSFSGFSLRTSGMGVGWIRQPSGKGLEWLAHIWWDDDKRYNPALKSRLTISKDTSSNQVFLKIASVDTADTATYYCAQINPAWFAYWGQGTLVTVSSLGGC
modifications: Interchain disulfide between the cysteines of the two LGGC sequences.
notes: In the assay it is the heterodimer of the two chains made by furin cleavage; also called pMGX0750 product; diabody molecules derived from the polyprotein precursor; copies: 1 + 1
binding result (soluble CD16A (sCD16A) [1]): binds
binding result (murine CD32B (mCD32B)): binds

B2: covalent bispecific diabody of constructs 15 and 16 (pMGX0752+pMGX0753) (bispecific antibody)
chain 1: EIVLTQSPDFQSVTPKEKVTFTCRTSQSIGTNIHWYQQKPDQSPKLLIKEVSESISGVPSRFSGSGSGTDFTLTINSLEAEDAATYYCQQSNTWPFTFGGGTKVEIKGGGSGGGGQVTLRESGPALVKPTQTLTLTCTFSGFSLSTSGMGVGWIRQPPGKALEWLAHIWWDDDKRYNPALKSRLTISKDTSKNQVVLTMTNMDPVDTATYYCAQINPAWFAYWGQGTLVTVSSFNRGEC
chain 2: DIVMTQSPDSLAVSLGERATINCKASQSVDFDGDSFMNWYQQKPGQPPKLLIYTTSNLESGVPDRFSGSGSGTDFTLTISSLQAEDVAVYYCQQSNEDPYTFGQGTKLEIKGGGSGGGGQVQLVQSGAEVKKPGASVKVSCKASGYTFTNYWIHWVRQAPGQGLEWIGVIDPSDTYPNYNKKFKGRVTMTVVVSTSTAYMELRSLRSDDTAVYYCARNGDSDYYSGMDYWGQGTTVTVSSVEPKSC
notes: Construct 15 = Hu2B6VL-Hu3G8VH-FNRGEC; construct 16 = Hu3G8VL-Hu2B6VH-VEPKSC; also called construct 15/16 combination
binding result (soluble CD16A (sCD16A) [2]): binds

B3: h3G8 covalent monospecific diabody (CMD) (other)
chain 1: DIVMTQSPDSLAVSLGERATINCKASQSVDFDGDSFMNWYQQKPGQPPKLLIYTTSNLESGVPDRFSGSGSGTDFTLTISSLQAEDVAVYYCQQSNEDPYTFGQGTKLEIKGGGSGGGGQVTLRESGPALVKPTQTLTLTCTFSGFSLSTSGMGVGWIRQPPGKALEWLAHIWWDDDKRYNPALKSRLTISKDTSKNQVVLTMTNMDPVDTATYYCAQINPAWFAYWGQGTLVTVSSLGGC
chain 2: B3 chain 1
modifications: Covalent homodimer: disulfide between the C-terminal LGGC cysteines of the two identical chains.
notes: also called h3G8 CMD; h3G8 diabody
binding result (soluble CD32B (sCD32B) [3]): no binding (tested: 100 nM)
binding result (soluble CD32A (sCD32A)): no binding (tested: 100 nM)
binding result (sCD32B-Ig): no binding (tested: 0.5 ug/ml)
Kd (soluble CD16A (sCD16A) [4]): 18 nM

B4: h2B6 covalent monospecific diabody (CMD) (other)
chain 1: EIVLTQSPDFQSVTPKEKVTFTCRTSQSIGTNIHWYQQKPDQSPKLLIKEVSESISGVPSRFSGSGSGTDFTLTINSLEAEDAATYYCQQSNTWPFTFGGGTKVEIKGGGSGGGGQVQLVQSGAEVKKPGASVKVSCKASGYTFTNYWIHWVRQAPGQGLEWIGVIDPSDTYPNYNKKFKGRVTMTVVVSTSTAYMELRSLRSDDTAVYYCARNGDSDYYSGMDYWGQGTTVTVSSLGGC
chain 2: B4 chain 1
modifications: Covalent homodimer: disulfide between the C-terminal LGGC cysteines of the two identical chains.
notes: also called h2B6 CMD; h2B6 diabody
binding result (soluble CD16A (sCD16A) [5]): no binding (tested: 100 nM)
binding result (soluble CD32A (sCD32A)): no binding (tested: 100 nM)
Kd (soluble CD32B (sCD32B) [6]): 21 nM
